Measurements reported in patent US20240043504A1 (published 2024).

B1: mAb10939 (antibody, V domains shown)
VH: EVQLVESGGGLVQPGGSLRLSCAASGLTVSSNYMNWVRQVPGKGLEWVSVIYSGGSKFYVDSVKGRFTISRHNSKNTLYLQMNSLRPEDTAVYYCTRDAQYYGMDVWGQGTTVTVSS
VL: DIQMTQSPSSLSASVGDRVTITCRASQSISTYLHWYQQKPGEAPKLLIYAASSLQSGVPSRFSGSGSGTDFTLTISSLQPEDFATYYCQQSYSTPPEIFGQGTKLEIKR
B2: mAb10956 (antibody, V domains shown)
VH: EVQLVESGGGLVQPGGSLRLSCAASGLTVSSNYMSWVRQAPGKGLEWVSVIYSGGSTFYADSVKGRFTISRDNSKNTLYLQMNSLRAEDTAVYYCARDLIKYGMDVWGQGTTVTVSS
VL: not shown
B3: mAb10937 (antibody, V domains shown)
VH: QITLKESGPTLVKPTQTLTLTCTFSGFSLSTNVVGVGWIRQPPGKALEWLALIYWNDDKRYSPSLKSRLTITKDTSKNQVVLTMTNMDPVDTATYYCAHGPTGDYFDYWGQGTLVTVSS
VL: not shown
B4: mAb10984 (antibody, V domains shown)
VH: EVQLVESGGGLVQPGGSLRLSCAASGLTVNRNYMSWVRQAPGKGLEWVSLIYSGGSTYYADSVKGRFTISRDNSKNTLYLQMNSLRLEDTAVYYCARGELGIPYGMDVWGQGTTVTVSS
VL: QSVLTQPPSVSAAPGQKVTISCSGSSSNIGNNYVSWYQQLPGTAPKLLIYDNNKRPSGIPDRFSGSKSGTSATLGITGLQTGDEADYYCGTWDSSLSAGVFGGGTKLTVLG
B5: mAb10921 (antibody, V domains shown)
VH: EVQLVESGGGLVQPGGSLRLSCAASGITVSSNYMSWVRQAPGKGLEWVSVIYSGGSTFYADSVKGRFTISRHNSKNTLYLQMNSLRAEDTAVYYCARERNFDAFDIWGQGTMVTVSS
VL: DIQMTQSPSSVSASVGDRVTITCRASQGISSWLAWYQQKPGKAPKLLIYAASSLQSGVPSRFSGSGSGTDFTLTISSLQPEDFATYYCQQANSFPLFTFGPGTKVDIKR
B6: mAb10920 (antibody, V domains shown)
VH: QVQLVESGGGVVQPGRSLRLSCAASGFTFSYYGMHWVRQAPGKGLEWVAVIWYDGSNKFYADSVKGRFTISRDNSKNTLYLQMNSLRAEDTAVYYCAAARPGYYYGMDVWGQGTTVTVSS
VL: DIQMTQSPSSLSASVGDRVTITCRASQGISNYLAWFQQKPGKAPNSLIYAASSLQRGVPSKFSGSGSGTDFTLTISSLQPEDFATYYCQQYNSYPRTFGQGTKVEIKR
B7: mAb10932 (antibody, V domains shown)
VH: EVQLVESGGGLVQSGGSLRLSCAASGLTVSSNYMSWVRQAPGKGLEWVSVIYSGGSTFYSDSVKGRFTISRHNSKNTLYLQMNSLRAEDTAVYYCARARGDAFDIWGQGTMVTVSS
VL: not shown
B8: mAb10964 (antibody, V domains shown)
VH: QVQLQESGPGLVKPSETLSLTCTVSGGSINNYYWIWIRQPPGKGLEWIGYIYHSGSTNYNPSLKSRVTISVDTSKNQFSLKVSSVTAADTAVYYCANMVRGVYEDDYWGQGTLVTVSS
VL: DIQMTQSPSSLSASVGDRVTITCRASQSISNYLNWYQQKPGKAPKLLIFAASSLRSGVPSRFSGSGSGTDFTLTISSLHPEDFATYYCQQNYNTPLTFGPGTKVDIKR
B9: mAb10965 (antibody, V domains shown)
VH: EVQLVESGGGLIQPGGSLRLSCAASVFTVSYNYMSWVRQAPGKGLEWVSVIYSGGSTYYADSVKGRFTISRDNSKNTLYLQMNSLRAEDTAVYYCARALPGWGGSFEYFDYWGQGTLVTVSS
VL: not shown
B10: mAb10923 (antibody, V domains shown)
VH: QVQLVQSGAEVKKPGASVKVSCKASGYTFINYYIHWVRQAPGQGLEWMGWINPNSGGTNYAQKFQGRVTMTRDTSISTAYMELSRLRSDDTAVYYCAIITIFGVVTWFDPWGQGTLVTVSS
VL: not shown
B11: mAb10934 (antibody, V domains shown)
VH: not shown
VL: DIQMTQSPSSLSASVGDRVTITCQASQDIWNYINWYQQKPGKAPKLLIYDASNLKTGVPSRFSGSGSGTDFTFTISSLQPEDIATYYCQQHDDLPPTFGQGTKVEIKR
B12: mAb10935 (antibody, V domains shown)
VH: EVQLVESGGGLVQPGGSLRLSCAASGFTVSSNYMSWVRQAPGKGLEWVSLIYSGGSTYYADSVKGRFTISRHNSKNTLYLQMNSLRSEDTAVYYCARVPLGDYYYGMDVWGQGTTVTVSS
VL: DIQMTQSPSSLSASVGDRVTITCQASQDINKYLNWYQQKPGKAPKLLIYDASNLETGVPSRFSGSGSGTDFTFTISSLQPEDIATYYCQQSDNLPLTFGGGTKVEIKR
B13: mAb10938 (antibody, V domains shown)
VH: EVQLVESGGGLVQPGGSLRLSCAVSGFTVSSNYMSWVRQAPGKGLEWVSLIYSGGSTFYADSVKGRFTISRHNSKNTLYLQMNSLRAEDTAVYYCAREGGYSYDYNYWGQGTLVTVSS
VL: DIQMTQSPSSLSASVGDRVTITCQASQDIRNYLNWYQQKPGKAPKLLIYDASNLETGVPSRFSGIGSGTDFTFTISSLQPEDIATYYCQQYDNLPITFGQGTRLEIKR
B14: mAb10954 (antibody, V domains shown)
VH: EVQLVESGGGLVQPGGSLRLSCAASGITVSSNYMSWVRQAPGKGLEWVSLIYSGGSTYYADSVKGRFTISRDNSKNTLYLQMNSLRVEDTAVYYCARDHGMAAAGYNYWGQGTLVTVSS
VL: DIQMTQSPSSLSASVGDRVTITCQASQDINKYLNWYQQKPGKAPKLLIYDASNLETGVPSRFSGSGSGTDFTFTINSLQPEDFATYFCQQYDNLPPAFGQGTKVEIKR
B15: mAb10967 (antibody, V domains shown)
VH: EVQLVESGGGLVQPGGSLRLSCAASGFTVSSNYMSWVRQAPGKGLEWVSVIYPGGSTFYADSVKGRFTISRDNSKNTLYLQMNSLRAEDTAVYYCARDQRDFAWGQGTLVTVSS
VL: DIQMTQSPSSLSASVGDRVTITCQASQDISNYLNWYQQKPGKAPKLLIYDASNLETGVPSRFSGSGSGTDFTFTISGLQPEDIATYYCQQYDNLPPTFGQGTRLEIKR
B16: mAb10955 (antibody, V domains shown)
VH: EVQLVESGGGLVQPGGSLRVSCAASGFTVSRNYMSWVRQAPGKGLEWVSVIYSGGSTFYADSVKGRFTISRDNSKNTLYLQMNSLRAEDTAIYYCARYIPRFDPWGQGTLVTVSS
VL: DIQMTQSPSSLSASVGDRVTITCQASQDISNYLNWFQQKPGRAPKLLIYDASNLETGVPSRFSGSGSGTDFTFTISSLQPEDIATYYCQQYDNLPITFGQGTRLEIKR
B17: mAb10966 (antibody, V domains shown)
VH: EVQLVESGGGLVQPGGSLRLSCAASGLTVSSNYMSWVRQAPGKGLEWVSVIYSGGSTFYADSVKGRFTISRDNSKNTLYLQMNSLRPEDTAVYYCAREGRIAATGYGMDVWGQGTTVTVSS
VL: not shown
B18: mAb10982 (antibody, V domains shown)
VH: EVQLVESGGGLVQPGGSLRLSCAASGLTVSSNYMSWVRQAPGKGLEWVSVIYSGGTTYYADSVKGRFTISRHNSKNTLSLQMNSLRAEDTAVYYCARGEGANYYGMDVWGQGTTVTVSS
VL: QSVLTQPPSVSGAPGQRVTISCTGSSSNIGTGYDVHWYQQLPGTAPKLLIYGNSNRPSGVPDRFSGSKSGTSASLAITGLQAEDEADYYCQSYDSSLSGYVVFGGGTKLTVLG
B19: mAb10985 (antibody, V domains shown)
VH: EVQLVESGGGLVQPGRSLRLSCAASGFTFDDYAMHWVRQAPGKGLEWVSGISWNRGSIGYADSVKGRFTISRDNAKNSLYLQMSSLRAEDTALYYCAKDGERWDSVVVPSARNGMDVWGQGTTVTVSS
VL: QSVLTQPPSVSGAPGQRVTISCTGSSSNIGAGYDVHWYQQLPGTAPKLLIYGNSNRPSGVPDRFSGSKSGTSASLAITGLQAEDEADYYCQSYDSSLSGSYVFGTGTKVTVLG
B20: mAb10986 (antibody, V domains shown)
VH: EVQLVESGGGLVQPGGSLRLSCAASEFTVSSNYMSWVRQAPGKGLEWVSVIYSGGSTFYADSVKGRFTISRDNSKNTLYLQMNSLRAEDTAVYYCARALPYGDLHFDYWGQGTLVTVSS
VL: QSVLTQPPSVSGAPGQRVTISCTGSSSNIGTGYDVHWYQQLPGTAPKLLIYGNTNRPSGVPDRFSGSKSGTSASLAITGLQAEDEADYYCQSYDSSLSDSYVFGTGTKVTVLG
B21: mAb10930 (antibody, V domains shown)
VH: EVQLVESGGGLVQPGRSLRLSCAASGFTFDDYAMYWVRQAPGKGLEWVSGISWNSGSIGYADSVKGRFTISRDNAKNSLYLQMNSLRAADTALYYCAKDKDWNSRGYYYYGMDVWGQGTTVTVSS
VL: not shown
B22: mAb10989 (antibody, V domains shown)
VH: QVQLVQSGAEVKKPGASVKVSCKASGYIFTGYYMHWVRQAPGQGLEWMGWINPNSGGANYAQKFQGRVTLTRDTSITTVYMELSRLRFDDTAVYYCARGSRYDWNQNNWFDPWGQGTLVTVSS
VL: QSALTQPASVSGSPGQSITISCTGTSSDVGTYNYVSWYQQHPGKAPKLMIFDVSNRPSGVSDRFSGSKSGNTASLTISGLQAEDEADYYCSSFTTSSTVVFGGGTKLTVLG
B23: mAb10969 (antibody, V domains shown)
VH: QVQLVESGGGVVQPGRSLRLSCAASGFTFSSYAMHWVRQAPGKGLEWVAVISYDGSNKYYADSVKGRFTISRDNSKNTLYLQMNSLRAEDTAVYYCARDGRTITMVRGVIDDAFDIWGQGTMVTVSS
VL: not shown
B24: mAb10915 (antibody, V domains shown)
VH: EVQLVESGGGLVQPGGSLRLSCAASGFTVSSNYMNWVRQAPGKGLEWVSVIYSGGSTFYADSVKGRFTISRHNSKNTLYLQMNSLRPEDTAVYYCARDLGGYFDYWGQGTLVTVSS
VL: not shown
B25: mAb10971 (antibody, V domains shown)
VH: EVQLVESGGGLIQPGGSLRLSCAASGVTVSSNYMSWVRQAPGKGLEWVSVIYSGGSTFYSDSVKGRFSISRDNSKNTLYLQMNSLRAEDTAVYYCARDLYYYGMDVWGQGTTVTVSS
VL: DIQLTQSPSFLSASVGDRVTITCRASQGISTYLAWYQQKPGKAPKLLIYAASTLQSGVPSRFSGSGSGTEFTLTISSLQPEDFATYYCQQLDSYPGLTFGGGTKVEIKR
B26: mAb10936 (antibody, V domains shown)
VH: QVQLVESGGGVVQPGRSLRLSCAASGFTFRNYGMHWVRQAPGKGLEWVSVIWYDGSNRYYADSVKGRFTISRDTSKNTLYLQMNSLRAEDTAVYYCARDPPITGTTGGDAFDIWGQGTMVTVSS
VL: not shown

The binders below were run against SARS-CoV-2 RBD-hFc (SARS-CoV-2) (assay: Luminex beads).
B1: binds. B2: binds. B3: binds. B4: binds. B5: binds. B6: binds. B7: binds. B8: binds. B9: binds. B10: binds. B11: binds. B12: binds. B13: binds. B14: binds. B15: binds. B16: binds. B17: binds. B18: binds. B19: binds. B20: binds. B21: binds. B22: binds. B23: binds. B24: binds. B25: binds. B26: binds.
